The target in test [1] is human VEGF-121 (human) (UniProt P15692). The test can be described thus: magnetic-bead partitioning binding assay read by flow cytometry; bound fraction against VEGF-121 concentration (1e-12 to about 1e-8 M), Langmuir one-site fit; how Lucentis was immobilised is not described. In general terms: In flow cytometry, cells or beads pass a laser one at a time.
Test [2] has the same target. The test can be described thus: receptor competition assay: His-tagged human VEGF-121 (0.1 nM) on beads with 1 nM human VEGF Receptor 1 and varied Lucentis; bound receptor fraction by flow cytometry, dose-response inhibition fit; blocked partner: VEGF Receptor 1.
Test [3] shares this target. The test can be described thus: receptor competition assay: His-tagged human VEGF-121 (0.1 nM) on beads with 1 nM human VEGF Receptor 2 and varied Lucentis; bound receptor fraction by flow cytometry, dose-response inhibition fit; blocked partner: VEGF Receptor 2.

Sequence of human VEGF-121 (human) (P15692 other isoform, or with tags, fused parts or gaps limits assumed): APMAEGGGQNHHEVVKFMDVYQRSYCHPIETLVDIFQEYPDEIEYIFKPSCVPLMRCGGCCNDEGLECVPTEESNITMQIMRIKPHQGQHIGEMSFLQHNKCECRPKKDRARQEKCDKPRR

One may read the Kd as the equilibrium constant for the complex coming apart. Low values mean a tighter complex, high ones a looser complex. A word on the IC50: it is the midpoint of a concentration-inhibition curve. A low value points to greater potency in that assay. Lucentis® (Fab) returned a Kd in the test with human VEGF-121 (human) [1] of 1.69 nM. Besides, the IC50 in the test with human VEGF-121 (human) [2] is 5.58 nM; with human VEGF-121 (human) [3], 2.36 nM.

These data come from patent publication US20220073922A1.
